Test results as given in US6699837.

Key:
[1] = target: HGF receptor (c-met) on human cell lines of the central nervous system (T98G glioblastoma, GOTO and SCCH-26 neuroblastoma) (human) (UniProt P08581); assay: ^125I-HGF saturation binding on GOTO cells, Scatchard analysis
[2] = target: HGF receptor (c-met) on human cell lines of the central nervous system (T98G glioblastoma, GOTO and SCCH-26 neuroblastoma) (human) (UniProt P08581); assay: ^125I-HGF binding on T98G, GOTO and SCCH-26 cells, Scatchard analysis (range told of the three cell lines)
[3] = target: HGF receptor (c-met) on human cell lines of the central nervous system (T98G glioblastoma, GOTO and SCCH-26 neuroblastoma) (human) (UniProt P08581); assay: ^125I-HGF saturation binding on SCCH-26 cells, Scatchard analysis
[4] = target: HGF receptor (c-met) on human cell lines of the central nervous system (T98G glioblastoma, GOTO and SCCH-26 neuroblastoma) (human) (UniProt P08581); assay: ^125I-HGF saturation binding on T98G cells, Scatchard analysis

Human recombinant HGF (hepatocyte growth factor), radioiodinated (^125I-HGF), sequence (P14210 32-728 limits assumed): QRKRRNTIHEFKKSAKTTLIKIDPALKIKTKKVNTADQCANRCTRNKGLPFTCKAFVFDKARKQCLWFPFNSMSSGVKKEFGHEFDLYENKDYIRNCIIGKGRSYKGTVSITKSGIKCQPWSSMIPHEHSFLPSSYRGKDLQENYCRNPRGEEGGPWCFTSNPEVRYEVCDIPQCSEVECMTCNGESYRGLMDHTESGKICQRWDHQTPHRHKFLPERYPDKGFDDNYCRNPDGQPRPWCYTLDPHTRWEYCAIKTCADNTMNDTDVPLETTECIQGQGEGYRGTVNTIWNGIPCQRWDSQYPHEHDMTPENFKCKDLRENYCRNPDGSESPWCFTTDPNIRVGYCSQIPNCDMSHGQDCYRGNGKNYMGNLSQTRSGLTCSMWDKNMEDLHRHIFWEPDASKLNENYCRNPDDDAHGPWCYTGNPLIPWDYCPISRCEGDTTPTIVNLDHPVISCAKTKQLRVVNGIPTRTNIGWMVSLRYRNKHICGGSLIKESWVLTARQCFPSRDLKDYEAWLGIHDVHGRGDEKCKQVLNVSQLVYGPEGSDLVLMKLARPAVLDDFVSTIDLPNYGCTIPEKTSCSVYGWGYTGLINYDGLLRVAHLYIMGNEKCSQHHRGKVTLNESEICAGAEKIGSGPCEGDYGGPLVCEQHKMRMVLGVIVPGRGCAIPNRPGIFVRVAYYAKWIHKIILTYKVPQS

B max (sites/cell) [1]: 120 sites/cell
Kd [1]: 0.03 nM
Kd [2]: 0.03 to 0.04 nM
B max (sites/cell) [3]: 60 sites/cell
Kd [3]: 0.02 nM
B max (sites/cell) [4]: 540 sites/cell
Kd [4]: 0.031 nM
Substance: Human recombinant HGF (hepatocyte growth factor), radioiodinated (^125I-HGF) (from UniProt P14210 32-728) (ligand)
